Results as given in PMC9482650, “Quantitative fragmentomics allow affinity mapping of interactomes” (Nature Communications, 2022).
Residue numbers refer to the chain shown, from its start.

T1: APBA1_1, Q02410
T1 sequence (Q02410 651-752, limits assumed, looked up): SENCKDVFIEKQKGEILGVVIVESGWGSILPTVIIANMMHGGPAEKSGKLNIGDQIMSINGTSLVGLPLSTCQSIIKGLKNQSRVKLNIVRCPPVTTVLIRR

T2: ARHGAP21, Q5T5U3
T2 sequence (Q5T5U3 45-169, limits assumed, looked up): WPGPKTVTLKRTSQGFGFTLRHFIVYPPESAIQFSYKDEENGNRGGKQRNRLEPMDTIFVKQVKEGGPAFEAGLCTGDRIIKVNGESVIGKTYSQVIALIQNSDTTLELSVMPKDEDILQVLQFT

T3: DFNB31_2, Q9P202
T3 sequence (Q9P202 274-371, limits assumed, looked up): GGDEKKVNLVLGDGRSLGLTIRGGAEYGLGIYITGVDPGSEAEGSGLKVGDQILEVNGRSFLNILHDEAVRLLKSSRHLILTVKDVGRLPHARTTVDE

T4: DLG3_2, Q92796
T4 sequence (Q92796 221-321, limits assumed, looked up): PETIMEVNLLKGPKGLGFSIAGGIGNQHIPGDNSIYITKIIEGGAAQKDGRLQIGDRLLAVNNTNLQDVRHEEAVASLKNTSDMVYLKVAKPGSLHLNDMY

T5: GRIP1_3, Q9Y3R0
T5 sequence (Q9Y3R0 247-346, limits assumed, looked up): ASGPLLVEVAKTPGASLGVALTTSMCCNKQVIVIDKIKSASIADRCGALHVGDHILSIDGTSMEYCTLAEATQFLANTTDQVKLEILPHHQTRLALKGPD

T6: GRIP1_4, Q9Y3R0
T6 sequence (Q9Y3R0 467-571, limits assumed, looked up): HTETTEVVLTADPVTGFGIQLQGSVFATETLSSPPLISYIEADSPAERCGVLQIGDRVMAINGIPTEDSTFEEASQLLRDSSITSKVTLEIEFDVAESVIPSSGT

T7: HTRA3, P83110
T7 sequence (P83110 354-453, limits assumed, looked up): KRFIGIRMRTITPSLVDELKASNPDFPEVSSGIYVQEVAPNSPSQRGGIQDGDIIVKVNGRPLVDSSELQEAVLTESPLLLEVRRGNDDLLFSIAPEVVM

T8: LIN7B, Q9HAP6
T8 sequence (Q9HAP6 88-185, limits assumed, looked up): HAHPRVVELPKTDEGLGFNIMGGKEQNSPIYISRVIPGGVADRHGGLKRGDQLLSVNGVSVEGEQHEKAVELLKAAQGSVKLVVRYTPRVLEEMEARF

T9: LIN7C, Q9NUP9
T9 sequence (Q9NUP9 88-185, limits assumed, looked up): T8 sequence (Q9HAP6 88-185, limits assumed, looked up) with A2S, D13E, V35I, V40I, Q65H, S79K, R89K, A96S

T10: MPP7, Q5T2T1
T10 sequence (Q5T2T1 134-230, limits assumed, looked up): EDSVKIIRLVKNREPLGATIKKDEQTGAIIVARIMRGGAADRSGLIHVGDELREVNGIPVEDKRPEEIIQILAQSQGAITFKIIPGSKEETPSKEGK

T11: PDZRN3_1, Q9UPQ7
T11 sequence (Q9UPQ7 244-349, limits assumed, looked up): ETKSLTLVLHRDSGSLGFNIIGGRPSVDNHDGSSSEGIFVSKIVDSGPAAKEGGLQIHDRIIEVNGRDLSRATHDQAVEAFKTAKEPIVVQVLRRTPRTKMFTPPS

B1: EPHB3, P54753 (peptide)
chain: QMNQTLPVQV
B2: JAG1, P78504 (peptide)
chain: QSLNRMEYIV
B3: MYOZ1, Q9NP98 (peptide)
chain: IPLDGETEEL

Target: T1, APBA1_1, Q02410
Test: holdup assay
Design: key: below the threshold = too weak to quantify, mostly under pKd 3.1 to 4
Settings: plain residues with an end cap or a label only (N-terminal biotin on a linker: ado-ado)

Row | pKd | Binder
1 | below the threshold | B1
2 | below the threshold | B2
3 | below the threshold | B3

Target: T2, ARHGAP21, Q5T5U3
Test: holdup assay
Design: key: below the threshold = too weak to quantify, mostly under pKd 3.1 to 4
Settings: plain residues with an end cap or a label only (N-terminal biotin on a linker: ado-ado)

Row | pKd | Binder
4 | 4 | B1
5 | below the threshold | B2
6 | below the threshold | B3

Target: CASK, O14936
Sequence (O14936 487-570): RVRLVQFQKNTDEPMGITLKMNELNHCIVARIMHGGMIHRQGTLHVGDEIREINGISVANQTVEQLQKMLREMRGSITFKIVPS
Test: holdup assay
Design: key: below the threshold = too weak to quantify, mostly under pKd 3.1 to 4
Settings: plain residues with an end cap or a label only (N-terminal biotin on a linker: ado-ado)

Row | pKd | Binder
7 | below the threshold | B1
8 | below the threshold | B2
9 | below the threshold | B3

Target: T3, DFNB31_2, Q9P202
Test: holdup assay
Design: key: below the threshold = too weak to quantify, mostly under pKd 3.1 to 4
Settings: plain residues with an end cap or a label only (N-terminal biotin on a linker: ado-ado)

Row | pKd | Binder
10 | below the threshold | B1
11 | below the threshold | B2
12 | below the threshold | B3

Target: T4, DLG3_2, Q92796
Test: holdup assay
Design: key: below the threshold = too weak to quantify, mostly under pKd 3.1 to 4
Settings: plain residues with an end cap or a label only (N-terminal biotin on a linker: ado-ado)

Row | pKd | Binder
13 | below the threshold | B1
14 | 4.45 | B2
15 | below the threshold | B3

Target: DLG4_1, P78352
Sequence (P78352 62-152): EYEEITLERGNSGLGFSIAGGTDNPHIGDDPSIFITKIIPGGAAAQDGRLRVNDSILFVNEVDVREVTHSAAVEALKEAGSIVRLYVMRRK
Test: holdup assay
Design: key: below the threshold = too weak to quantify, mostly under pKd 3.1 to 4
Settings: plain residues with an end cap or a label only (N-terminal biotin on a linker: ado-ado)

Row | pKd | Binder
16 | below the threshold | B1
17 | below the threshold | B2
18 | below the threshold | B3

Target: FRMPD3, Q5JV73
Sequence (Q5JV73 12-100): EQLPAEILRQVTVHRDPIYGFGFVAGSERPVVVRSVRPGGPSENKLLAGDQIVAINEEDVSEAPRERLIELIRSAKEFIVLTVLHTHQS
Test: holdup assay
Design: key: below the threshold = too weak to quantify, mostly under pKd 3.1 to 4
Settings: plain residues with an end cap or a label only (N-terminal biotin on a linker: ado-ado)

Row | pKd | Binder
19 | below the threshold | B1
20 | below the threshold | B2
21 | below the threshold | B3

Target: FRMPD4, Q14CM0
Sequence (Q14CM0 67-160): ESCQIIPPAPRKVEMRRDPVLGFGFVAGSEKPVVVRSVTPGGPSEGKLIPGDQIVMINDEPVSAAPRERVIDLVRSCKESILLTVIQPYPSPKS
Test: holdup assay
Design: key: below the threshold = too weak to quantify, mostly under pKd 3.1 to 4
Settings: plain residues with an end cap or a label only (N-terminal biotin on a linker: ado-ado)

Row | pKd | Binder
22 | below the threshold | B1
23 | below the threshold | B2
24 | 4.03 | B3

Target: GIPC2, Q8TF65
Sequence (Q8TF65 112-203): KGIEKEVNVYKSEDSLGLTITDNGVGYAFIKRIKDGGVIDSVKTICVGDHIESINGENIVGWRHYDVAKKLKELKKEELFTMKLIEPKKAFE
Test: holdup assay
Design: key: below the threshold = too weak to quantify, mostly under pKd 3.1 to 4
Settings: plain residues with an end cap or a label only (N-terminal biotin on a linker: ado-ado)

Row | pKd | Binder
25 | below the threshold | B1
26 | below the threshold | B2
27 | below the threshold | B3

Target: GORASP1, Q9BQQ3
Sequence (Q9BQQ3 1-208): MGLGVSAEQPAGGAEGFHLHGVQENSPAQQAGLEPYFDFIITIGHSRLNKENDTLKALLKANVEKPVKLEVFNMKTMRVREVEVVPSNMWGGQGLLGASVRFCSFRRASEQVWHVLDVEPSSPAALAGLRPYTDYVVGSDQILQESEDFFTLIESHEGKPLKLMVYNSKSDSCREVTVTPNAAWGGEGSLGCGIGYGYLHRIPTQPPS
Test: holdup assay
Design: key: below the threshold = too weak to quantify, mostly under pKd 3.1 to 4
Settings: plain residues with an end cap or a label only (N-terminal biotin on a linker: ado-ado)

Row | pKd | Binder
28 | 3.58 | B1
29 | 4.71 | B2
30 | below the threshold | B3

Target: GORASP2, Q9H8Y8
Test: holdup assay
Design: key: below the threshold = too weak to quantify, mostly under pKd 3.1 to 4
Settings: plain residues with an end cap or a label only (N-terminal biotin on a linker: ado-ado)

Row | pKd | Binder
31 | 3.81 | B1
32 | 5.14 | B2
33 | below the threshold | B3

Target: GRID2IP_1, A4D2P6
Sequence (A4D2P6 1-87): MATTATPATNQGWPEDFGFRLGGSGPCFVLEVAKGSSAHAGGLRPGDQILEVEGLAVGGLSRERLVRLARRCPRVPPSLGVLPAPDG
Test: holdup assay
Design: key: below the threshold = too weak to quantify, mostly under pKd 3.1 to 4
Settings: plain residues with an end cap or a label only (N-terminal biotin on a linker: ado-ado)

Row | pKd | Binder
34 | below the threshold | B1
35 | below the threshold | B2
36 | below the threshold | B3

Target: T5, GRIP1_3, Q9Y3R0
Test: holdup assay
Design: key: below the threshold = too weak to quantify, mostly under pKd 3.1 to 4
Settings: plain residues with an end cap or a label only (N-terminal biotin on a linker: ado-ado)

Row | pKd | Binder
37 | below the threshold | B1
38 | below the threshold | B2
39 | below the threshold | B3

Target: T6, GRIP1_4, Q9Y3R0
Test: holdup assay
Design: key: below the threshold = too weak to quantify, mostly under pKd 3.1 to 4
Settings: plain residues with an end cap or a label only (N-terminal biotin on a linker: ado-ado)

Row | pKd | Binder
40 | below the threshold | B1
41 | below the threshold | B2
42 | below the threshold | B3

Target: GRIP2_5, Q9C0E4
Sequence (Q9C0E4 544-642): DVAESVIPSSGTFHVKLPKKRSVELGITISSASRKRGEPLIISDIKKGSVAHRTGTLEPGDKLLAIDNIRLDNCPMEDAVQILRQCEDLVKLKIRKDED
Test: holdup assay
Design: key: below the threshold = too weak to quantify, mostly under pKd 3.1 to 4
Settings: plain residues with an end cap or a label only (N-terminal biotin on a linker: ado-ado)

Row | pKd | Binder
43 | below the threshold | B1
44 | below the threshold | B2
45 | below the threshold | B3

Target: T7, HTRA3, P83110
Test: holdup assay
Design: key: below the threshold = too weak to quantify, mostly under pKd 3.1 to 4
Settings: plain residues with an end cap or a label only (N-terminal biotin on a linker: ado-ado)

Row | pKd | Binder
46 | below the threshold | B1
47 | 3.87 | B2
48 | below the threshold | B3

Target: Inadl_2, Q8NI35
Sequence (Q8NI35 238-335): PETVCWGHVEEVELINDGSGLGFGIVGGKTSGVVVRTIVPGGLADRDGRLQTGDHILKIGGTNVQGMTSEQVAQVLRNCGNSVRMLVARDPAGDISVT
Test: holdup assay
Design: key: below the threshold = too weak to quantify, mostly under pKd 3.1 to 4
Settings: plain residues with an end cap or a label only (N-terminal biotin on a linker: ado-ado)

Row | pKd | Binder
49 | below the threshold | B1
50 | 4.77 | B2
51 | below the threshold | B3

Target: T8, LIN7B, Q9HAP6
Test: holdup assay
Design: key: below the threshold = too weak to quantify, mostly under pKd 3.1 to 4
Settings: plain residues with an end cap or a label only (N-terminal biotin on a linker: ado-ado)

Row | pKd | Binder
52 | below the threshold | B1
53 | below the threshold | B2
54 | below the threshold | B3

Target: T9, LIN7C, Q9NUP9
Test: holdup assay
Design: key: below the threshold = too weak to quantify, mostly under pKd 3.1 to 4
Settings: plain residues with an end cap or a label only (N-terminal biotin on a linker: ado-ado)

Row | pKd | Binder
55 | below the threshold | B1
56 | 3.53 | B2
57 | below the threshold | B3

Target: LNX1_1, Q8TBB1
Sequence (Q8TBB1 261-371): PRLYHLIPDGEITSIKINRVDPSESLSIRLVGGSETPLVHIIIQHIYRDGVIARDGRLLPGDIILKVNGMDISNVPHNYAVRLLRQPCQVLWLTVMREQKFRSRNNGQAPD
Test: holdup assay
Design: key: below the threshold = too weak to quantify, mostly under pKd 3.1 to 4
Settings: plain residues with an end cap or a label only (N-terminal biotin on a linker: ado-ado)

Row | pKd | Binder
58 | below the threshold | B1
59 | below the threshold | B2
60 | below the threshold | B3

Target: MAGI2_3, Q86UL8
Sequence (Q86UL8 600-682): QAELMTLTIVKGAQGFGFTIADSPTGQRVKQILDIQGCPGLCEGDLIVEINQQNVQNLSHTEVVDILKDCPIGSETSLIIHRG
Test: holdup assay
Design: key: below the threshold = too weak to quantify, mostly under pKd 3.1 to 4
Settings: plain residues with an end cap or a label only (N-terminal biotin on a linker: ado-ado)

Row | pKd | Binder
61 | 3.64 | B1
62 | below the threshold | B2
63 | below the threshold | B3

Target: MAGI2_4, Q86UL8
Sequence (Q86UL8 772-865): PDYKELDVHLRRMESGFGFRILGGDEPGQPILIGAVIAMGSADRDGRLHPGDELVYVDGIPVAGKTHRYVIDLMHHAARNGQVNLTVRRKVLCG
Test: holdup assay
Design: key: below the threshold = too weak to quantify, mostly under pKd 3.1 to 4
Settings: plain residues with an end cap or a label only (N-terminal biotin on a linker: ado-ado)

Row | pKd | Binder
64 | 3.7 | B1
65 | 3.87 | B2
66 | below the threshold | B3

Target: T10, MPP7, Q5T2T1
Test: holdup assay
Design: key: below the threshold = too weak to quantify, mostly under pKd 3.1 to 4
Settings: plain residues with an end cap or a label only (N-terminal biotin on a linker: ado-ado)

Row | pKd | Binder
67 | below the threshold | B1
68 | 3.98 | B2
69 | below the threshold | B3

Target: NHERF4_2, Q86UT5
Sequence (Q86UT5 220-308): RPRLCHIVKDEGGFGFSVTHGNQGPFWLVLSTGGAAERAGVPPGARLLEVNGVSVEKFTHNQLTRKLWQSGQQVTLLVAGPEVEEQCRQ
Test: holdup assay
Design: key: below the threshold = too weak to quantify, mostly under pKd 3.1 to 4
Settings: plain residues with an end cap or a label only (N-terminal biotin on a linker: ado-ado)

Row | pKd | Binder
70 | 3.52 | B1
71 | below the threshold | B2
72 | below the threshold | B3

Target: T11, PDZRN3_1, Q9UPQ7
Test: holdup assay
Design: key: below the threshold = too weak to quantify, mostly under pKd 3.1 to 4
Settings: plain residues with an end cap or a label only (N-terminal biotin on a linker: ado-ado)

Row | pKd | Binder
73 | 3.51 | B1
74 | below the threshold | B2
75 | below the threshold | B3
